# Where two headings read alike, the source gives them in different places.
# B1: P12A-bN (peptide)
# chain: DKNQQLKQKIQELKQKIQELKWENQELEQ
# B2: O10-bH (peptide)
# chain: DKNQELKKENEELERKIWELKKKIQELKR
# B3: 4H1387-bA (peptide)
# chain: DENAQLEQKIAELKQKIAELKWENAQLEQ
# B4: 4H1387-bN (peptide)
# chain: DENQQLEQKIQELKQKIQELKWENQELEQ
# B5: 4H687-bH (peptide)
# chain: DEIQELKKENEELERKIWELKKKNQELER
# B6: 4H1738-AA (peptide)
# chain: DENAALKAENAALKAEIAALKAEIAALKG
# Assays:
# [1] = target: T1, P1A-bN; experiment: two-hybrid library CCNG1;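 note: natural log of median RNA to DNA barcode read ratio; higher means stronger binding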
# T1 chain: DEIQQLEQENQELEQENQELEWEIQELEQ
# [2] = target: T2, P8A-bN; experiment: two-hybrid library CCNG1;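 note: natural log of median RNA to DNA barcode read ratio; higher means stronger binding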
# T2 chain: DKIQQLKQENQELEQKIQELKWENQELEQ
# [3] = target: T3, P6A-bN; experiment: two-hybrid library CCNG1;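 note: natural log of median RNA to DNA barcode read ratio; higher means stronger binding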
# T3 chain: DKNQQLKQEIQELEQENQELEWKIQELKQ
# [4] = target: T4, P12A-bN; experiment: two-hybrid library CCNG1;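 note: natural log of median RNA to DNA barcode read ratio; higher means stronger binding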
# T4 chain: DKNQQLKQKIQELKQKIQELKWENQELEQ
# [5] = target: T5, P4A-bN; experiment: two-hybrid library CCNG1;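 note: natural log of median RNA to DNA barcode read ratio; higher means stronger binding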
# T5 chain: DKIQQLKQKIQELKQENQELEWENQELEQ
# [6] = target: T6, P3A-bN; experiment: two-hybrid library CCNG1;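 note: natural log of median RNA to DNA barcode read ratio; higher means stronger binding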
# T6 chain: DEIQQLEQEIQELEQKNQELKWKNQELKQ
# [7] = target: T7, P7A-bN; experiment: two-hybrid library CCNG1
# T7 chain: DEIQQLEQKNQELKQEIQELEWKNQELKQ
# [8] = target: T8, P2A-bN; experiment: two-hybrid library CCNG1
# T8 chain: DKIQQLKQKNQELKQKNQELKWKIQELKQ
# [9] = target: T9, P5A-bN; experiment: two-hybrid library CCNG1
# T9 chain: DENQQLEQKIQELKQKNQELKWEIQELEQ
# [10] = target: T10, P9A-bN; experiment: two-hybrid library CCNG1
# T10 chain: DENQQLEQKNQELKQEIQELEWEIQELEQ
# [11] = target: T11, O7-bH; experiment: two-hybrid library CCNG1
# T11 chain: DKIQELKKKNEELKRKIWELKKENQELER
# [12] = target: T12, O12-bH; experiment: two-hybrid library CCNG1
# T12 chain: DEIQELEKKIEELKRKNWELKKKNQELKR
# [13] = target: T13, O8-bH; experiment: two-hybrid library CCNG1
# T13 chain: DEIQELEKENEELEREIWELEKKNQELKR
# [14] = target: T14, O10-bH; experiment: two-hybrid library CCNG1
# T14 chain: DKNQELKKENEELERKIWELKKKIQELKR
# [15] = target: T15, O11-bH; experiment: two-hybrid library CCNG1
# T15 chain: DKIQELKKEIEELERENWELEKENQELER
# [16] = target: T16, O9-bH; experiment: two-hybrid library CCNG1; settings: mean of both orientations
# T16 chain: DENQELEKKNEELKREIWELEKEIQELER
# [17] = target: T17, O13-bH; experiment: two-hybrid library CCNG1
# T17 chain: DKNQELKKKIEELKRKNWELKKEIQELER
# [18] = target: T18, O5-bH; experiment: two-hybrid library CCNG1
# T18 chain: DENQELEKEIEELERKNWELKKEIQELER
# [19] = target: T19, O14-bH; experiment: two-hybrid library CCNG1
# T19 chain: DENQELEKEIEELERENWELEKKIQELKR
# [20] = target: T20, O4-bH; experiment: two-hybrid library CCNG1
# T20 chain: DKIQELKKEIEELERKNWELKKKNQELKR
# [21] = target: T21, O3-bH; experiment: two-hybrid library CCNG1
# T21 chain: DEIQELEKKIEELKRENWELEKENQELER
# [22] = target: T22, O2-bH; experiment: two-hybrid library CCNG1
# T22 chain: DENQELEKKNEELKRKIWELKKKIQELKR
# [23] = target: T23, O16-bH; experiment: two-hybrid library CCNG1
# T23 chain: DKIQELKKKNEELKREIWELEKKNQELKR
# [24] = target: T24, O6-bH; experiment: two-hybrid library CCNG1
# T24 chain: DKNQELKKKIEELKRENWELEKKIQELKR
# [25] = target: T25, O15-bH; experiment: two-hybrid library CCNG1
# T25 chain: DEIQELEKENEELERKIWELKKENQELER
# [26] = target: T26, 4H1387-bA; experiment: two-hybrid library CCNG1
# T26 chain: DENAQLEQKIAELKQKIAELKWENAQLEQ
# [27] = target: T27, 4H3907-bA; experiment: two-hybrid library CCNG1
# T27 chain: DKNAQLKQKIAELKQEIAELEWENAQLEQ
# [28] = target: T28, 4H3592-bA; experiment: two-hybrid library CCNG1
# T28 chain: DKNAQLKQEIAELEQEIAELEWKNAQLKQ
# [29] = target: T29, 4H1406-bA; experiment: two-hybrid library CCNG1
# T29 chain: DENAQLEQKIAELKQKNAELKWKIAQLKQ
# [30] = target: T30, 4H3601-bA; experiment: two-hybrid library CCNG1
# T30 chain: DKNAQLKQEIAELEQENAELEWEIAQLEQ
# [31] = target: T31, 4H4038-bA; experiment: two-hybrid library CCNG1
# T31 chain: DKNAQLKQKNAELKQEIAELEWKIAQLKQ
# [32] = target: T32, 4H1406-bN; experiment: two-hybrid library CCNG1
# T32 chain: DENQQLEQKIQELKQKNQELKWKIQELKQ
# [33] = target: T33, 4H454-bN; experiment: two-hybrid library CCNG1
# T33 chain: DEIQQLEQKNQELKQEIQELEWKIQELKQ
# [34] = target: T34, 4H2162-bN; experiment: two-hybrid library CCNG1
# T34 chain: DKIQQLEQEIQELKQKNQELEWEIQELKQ
# [35] = target: T35, 4H3592-bN; experiment: two-hybrid library CCNG1
# T35 chain: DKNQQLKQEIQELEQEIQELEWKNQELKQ
# [36] = target: T36, 4H3907-bN; experiment: two-hybrid library CCNG1
# T36 chain: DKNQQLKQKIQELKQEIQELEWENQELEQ
# [37] = target: T37, 4H3601-bN; experiment: two-hybrid library CCNG1
# T37 chain: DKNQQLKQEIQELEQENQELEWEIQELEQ
# [38] = target: T38, 4H1387-bN; experiment: two-hybrid library CCNG1
# T38 chain: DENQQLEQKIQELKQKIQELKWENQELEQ
# [39] = target: T39, 4H4038-bN; experiment: two-hybrid library CCNG1
# T39 chain: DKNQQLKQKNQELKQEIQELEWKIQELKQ
# [40] = target: T40, 4H687-bH; experiment: two-hybrid library CCNG1
# T40 chain: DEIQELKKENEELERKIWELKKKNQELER
# [41] = target: T41, 4H717-bH; experiment: two-hybrid library CCNG1
# T41 chain: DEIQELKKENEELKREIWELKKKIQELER
# [42] = target: T42, 4H754-bH; experiment: two-hybrid library CCNG1
# T42 chain: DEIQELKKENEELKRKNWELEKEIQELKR
# [43] = target: T43, 4H908-bH; experiment: two-hybrid library CCNG1
# T43 chain: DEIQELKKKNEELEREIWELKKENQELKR
# [44] = target: T44, 4H953-bH; experiment: two-hybrid library CCNG1
# T44 chain: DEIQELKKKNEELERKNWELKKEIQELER
# [45] = target: T45, 4H883-bH; experiment: two-hybrid library CCNG1
# T45 chain: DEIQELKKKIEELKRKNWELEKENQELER
# [46] = target: T46, 4H918-bH; experiment: two-hybrid library CCNG1
# T46 chain: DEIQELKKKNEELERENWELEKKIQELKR
# [47] = target: T47, 4H967-bH; experiment: two-hybrid library CCNG1
# T47 chain: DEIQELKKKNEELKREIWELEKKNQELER
# [48] = target: T48, 4H797-bH; experiment: two-hybrid library CCNG1
# T48 chain: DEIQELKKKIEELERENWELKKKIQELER
# [49] = target: T49, 4H72-bH; experiment: two-hybrid library CCNG1
# T49 chain: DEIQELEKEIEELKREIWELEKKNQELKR
# [50] = target: T50, 4H3493-AA; experiment: two-hybrid library CCmax; settings: mean of both orientations
# T50 chain: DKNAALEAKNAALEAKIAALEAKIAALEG
# [51] = target: T51, 4H3381-AA; experiment: two-hybrid library CCmax; settings: mean of both orientations
# T51 chain: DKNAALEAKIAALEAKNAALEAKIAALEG
# [52] = target: T52, 4H2592-AA; experiment: two-hybrid library CCmax; settings: mean of both orientations
# T52 chain: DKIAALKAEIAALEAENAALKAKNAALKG
# [53] = target: T53, 4H2219-AA; experiment: two-hybrid library CCmax; settings: mean of both orientations
# T53 chain: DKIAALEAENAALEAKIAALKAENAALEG
# [54] = target: T54, 4H963-AA; experiment: two-hybrid library CCmax; settings: mean of both orientations
# T54 chain: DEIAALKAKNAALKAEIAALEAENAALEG
# [55] = target: T55, 4H3340-AA; experiment: two-hybrid library CCmax; settings: mean of both orientations
# T55 chain: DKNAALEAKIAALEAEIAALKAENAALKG
# [56] = target: T56, 4H376-AA; experiment: two-hybrid library CCmax; settings: mean of both orientations
# T56 chain: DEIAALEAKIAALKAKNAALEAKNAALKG
# [57] = target: T57, 4H347-AA; experiment: two-hybrid library CCmax; settings: mean of both orientations
# T57 chain: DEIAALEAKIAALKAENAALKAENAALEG
# [58] = target: T58, 4H2504-AA; experiment: two-hybrid library CCmax
# T58 chain: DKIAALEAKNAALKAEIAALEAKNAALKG
# [59] = target: T59, 4H1738-AA; experiment: two-hybrid library CCmax
# T59 chain: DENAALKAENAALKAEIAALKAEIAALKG
# [60] = target: T60, 4H2774-AA; experiment: two-hybrid library CCmax; settings: mean of both orientations
# T60 chain: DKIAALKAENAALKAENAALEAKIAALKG
# [61] = target: T61, 4H249-AA; experiment: two-hybrid library CCmax; settings: mean of both orientations
# T61 chain: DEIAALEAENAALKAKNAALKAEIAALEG
# [62] = target: T62, 4H688-AA; experiment: two-hybrid library CCmax; settings: mean of both orientations
# T62 chain: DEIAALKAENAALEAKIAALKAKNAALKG
# [63] = target: T63, 4H406-AA; experiment: two-hybrid library CCmax; settings: mean of both orientations
# T63 chain: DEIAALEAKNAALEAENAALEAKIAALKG
# [64] = target: T64, 4H2611-AA; experiment: two-hybrid library CCmax; settings: mean of both orientations
# T64 chain: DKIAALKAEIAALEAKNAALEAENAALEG
# [65] = target: T65, 4H3001-AA; experiment: two-hybrid library CCmax; settings: mean of both orientations
# T65 chain: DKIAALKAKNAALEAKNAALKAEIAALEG
binder,measurement,setting,value
B1,interaction score,[1],-1.71
same,interaction score,[2],-1.71
same,interaction score,[3],0.295
same,interaction score,[4],-0.758
same,interaction score,[5],-0.221
same,interaction score,[6],1.82
same,interaction score,[7],-0.617
same,interaction score,[8],-0.94
same,interaction score,[9],-1.2
same,interaction score,[10],-1.28
B2,interaction score,[11],0.671
same,interaction score,[12],-1.91
same,interaction score,[13],-0.465
same,interaction score,[14]; mean of both orientations,0.392
same,interaction score,[15],-0.919
same,interaction score,[16],0.317
same,interaction score,[17],0.177
same,interaction score,[18],0.349
same,interaction score,[19],-1.44
same,interaction score,[20],0.524
same,interaction score,[21],1.13
same,interaction score,[22],0.103
same,interaction score,[23],0.522
same,interaction score,[24],0.0839
same,interaction score,[25],-0.726
B3,interaction score,[26],-0.828
same,interaction score,[27],1.32
same,interaction score,[28],2.02
same,interaction score,[29],-1.1
same,interaction score,[30],-0.539
same,interaction score,[31],0.838
B4,interaction score,[32],-0.625
same,interaction score,[33],-0.28
same,interaction score,[34],-2.27
same,interaction score,[35],0.94
same,interaction score,[36],1.31
same,interaction score,[37],-0.293
same,interaction score,[38],-1.9
same,interaction score,[39],0.464
B5,interaction score,[40],0
same,interaction score,[41],-0.0944
same,interaction score,[42],-0.221
same,interaction score,[43],-0.414
same,interaction score,[44],-0.5
same,interaction score,[45],0.0397
same,interaction score,[14],-0.602
same,interaction score,[46],-0.146
same,interaction score,[47],1.63
same,interaction score,[48],-0.897
same,interaction score,[49],0.182
B6,interaction score,[50],-1.11
same,interaction score,[51],-1.45
same,interaction score,[52],-1.14
same,interaction score,[53],-1.76
same,interaction score,[54],-1.8
same,interaction score,[55],-1.31
same,interaction score,[56],-1.75
same,interaction score,[57],-1.67
same,interaction score,[58],-1.96
same,interaction score,[59],1.65
same,interaction score,[60],-1.15
same,interaction score,[61],-1.2
same,interaction score,[62],-1.24
same,interaction score,[63],-1.49
same,interaction score,[64],-1.52
same,interaction score,[65],-1.39
